How the values were obtained:
RBP45d (His-RBP45d) [1] = biological target: T1, RBP45d (His-RBP45d) (Arabidopsis thaliana, UniProt Q8VXZ9 1-425); assay: competition; unlabeled vs Cy5-SOT5-IN7; REMSA; buffer, salt, pH and temperature not given in the material; unlabeled competitor up to at least 6 uM; conditions: protein: recombinant; tags: His (pET51b); single strand
T1 sequence: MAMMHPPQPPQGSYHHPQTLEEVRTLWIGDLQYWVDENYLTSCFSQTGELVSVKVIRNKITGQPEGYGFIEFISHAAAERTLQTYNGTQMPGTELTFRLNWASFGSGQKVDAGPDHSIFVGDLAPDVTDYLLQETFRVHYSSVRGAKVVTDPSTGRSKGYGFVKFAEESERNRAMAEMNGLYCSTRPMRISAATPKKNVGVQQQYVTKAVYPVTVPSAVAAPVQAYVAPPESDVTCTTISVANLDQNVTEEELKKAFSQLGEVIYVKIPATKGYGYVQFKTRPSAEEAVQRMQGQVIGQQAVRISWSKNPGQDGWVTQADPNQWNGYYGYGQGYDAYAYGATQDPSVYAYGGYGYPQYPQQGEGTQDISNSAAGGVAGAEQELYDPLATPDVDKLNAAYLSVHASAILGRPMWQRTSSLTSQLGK

RBP45d (His-RBP45d) [2] = biological target: T1, RBP45d (His-RBP45d); assay: EMSA; dose-dependent; REMSA; buffer, salt, pH and temperature not given in the material; unlabeled competitor up to at least 6 uM; conditions: protein: recombinant; tags: His (pET51b); label: 5'-Cy5; single strand

B1: SOT5-IN7-NL (ssRNA)
RNA: CUCAAUAUGAUAAAUUUUGUAAAUC
B1: binds (RBP45d (His-RBP45d) [1]).

B2: SOT5-IN7-M4-NL (ssRNA)
RNA: CUCAAUAUGCCCGGCCGGGUAAAUC
B2: no binding (RBP45d (His-RBP45d) [1]).

B3: SOT5-IN7-M1-NL (ssRNA)
RNA: CUCAAUAUGGUAAAUUUUGUAAAUC
B3: binds (RBP45d (His-RBP45d) [1]).

B4: Cy5-SOT5-IN7 (ssRNA)
RNA: CUCAAUAUGAUAAAUUUUGUAAAUC
B4: binds (RBP45d (His-RBP45d) [2]).

B5: SOT5-IN7-M2-NL (ssRNA)
RNA: CUCAAUAUGGCAAAUUUUGUAAAUC
B5: binds (RBP45d (His-RBP45d) [1]).

From PMC9813592, “A genetic screen in Arabidopsis reveals the identical roles for RBP45d and PRP39a in 5’ cryptic splice site selection”
